Measured values taken from paper PMC11194501.

Assays:
[1] = target: Cep57N (Cep57 residues 56 to 251) (human) (UniProt Q86XR8); assay: ITC
[2] = target: Cep57S-KR (Cep57S with six Lys and Arg residues of the K/R motif replaced by Ala) (human) (UniProt Q86XR8); assay: pull-down; His-tagged Cep57S held on a Ni-NTA spin column, 0.1 mg α/β-tubulin added, 4 °C; 1X PBS pH 8.0, 1 mM 2-mercaptoethanol, 20 mM imidazole, 0.1% Triton X100, 10% glycerol; eluted with 400 mM imidazole, SDS-PAGE
[3] = target: MBP-Cep63N (fusion of MBP and the N-terminal fragment of Cep63) (human) (UniProt Q96MT8); assay: ITC

Work on “MBP-Cep63N (fusion of MBP and the N-terminal fragment of Cep63) (from UniProt Q96MT8-2 1-541) (domain or fragment)” yielded a Kd [1] of 500 nM and a stoichiometry N [1] of 0.6.
“α/β-tubulin (from UniProt P02550 1-451; P02554 1-445) (complex)” was tested, and the reduction of tubulin binding against Cep57S [2] was 65%.
“Cep57N (Cep57 residues 56 to 251) (from UniProt Q86XR8 56-251) (domain or fragment)” showed a Kd [3] of 600 nM.
